Laboratory results taken from the supplement of paper PMC10201428.
± gives the standard deviation of the averaged measurements.

Tests used:
[1] = test system: VchCAST RNA-guided transposition machinery (E. coli BL21(DE3) host, lacZ target); assay: relative integration efficiency (T-RL orientation) vs wild-type transposon end (log2 (normalized fold change)); transposon end mutated: right end (5 bp flank + 75 bp right end); higher = more efficient transposition
Procedure, shortened: (§1)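 Barcode abundances in input plasmids and in genomic integration junctions were obtained by PCR amplification and Illumina sequencing. These came from E. coli BL21(DE3) co-transformed with a T7-driven effector plasmid and a pUC57 donor carrying 1549 left-end or 1849 right-end transposon variants, then plated with 0.1 mM IPTG at 37°C for 18 h. Relative integration efficiency is the output/input fold change, normalised to reference barcodes and log-transformed.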

[2] = test system: VchCAST RNA-guided transposition machinery (E. coli BL21(DE3) host, lacZ target); assay: relative integration efficiency (T-LR orientation) vs wild-type transposon end (log2 (normalized fold change)); transposon end mutated: right end (5 bp flank + 75 bp right end); higher = more efficient transposition
Procedure, shortened: as §1

Sequence	relative integration efficiency (log2) [1]	relative integration efficiency (log2) [2]
ACATTTGTCGATACAACCCTAAAATGATAATTACACCCATAAATTCATCATTATCACCCCCAATTTAACTATAACGCTCTGATCATAGTCAGACCAACATTGCTACGACCCGTATTCGCACCGACAC	-4.56 ± 0.18	-1.16 ± 0.18
ACATTTGTTGATACACCCATAAATTGATAATTACACCCATAAATTGATATTGCTCAGTGGGTATTTAACTATAACGCTCTGATCATAGTCAGACCAACATTGCTACGACCCGTATTCGCACCGACAC	-1.23 ± 0.25	2.63 ± 0.18
ACATTTGTGGATACAACCATAAAATGATAATTACACCCATAAATTCATCATTATCACCCCCAATTTAACTATAACGCTCTGATCATAGTCAGACCAACATTGCTACGACCCGTATTCGCACCGACAC	-1.88 ± 0.43	1.385 ± 0.0021
ACATTTGCTGATACTACCATATAATGATAATAACACCCATAAAATGATAATTATCACACCCAATTTAACTATAACGCTCTGATCATAGTCAGACCAACATTGCTACGACCCGTATTCGCACCGACAC	-2.27 ± 0.43	-0.422 ± 0.19
ACATTTGTTGATACACCCATAAATTGATATTGCCAACCATAAGTTGATATTTTTCACAACCATAAGTTGATATTTTCTCTGATCATAGTCAGACCAACATTGCTACGACCCGTATTCGCACCGACAC	-0.695 ± 0.095	-0.197 ± 0.3
ACATTTGTTGATACAACCATAAAATGAAAATTACACCCATAAATTGAAAATTATCACACCCATAAATTGAAATTGCCTCTGATCATAGTCAGACCAACATTGCTACGACCCGTATTCGCACCGACAC	-1.13 ± 0.26	0.0682 ± 0.25
ACATTTGTTGATACAACCATAAAATGATAATTAATCACCCATAAATTGATAATTATCACACCCATAAATTGATATTGCCTCTGATCATAGTCAGACCAACATTGCTACGACCCGTATTCGCACCGAC	-1.92 ± 0.059	-0.602 ± 0.3
ACATTTGTTGATACCACCATCAAATGATAATTCCACCCATACATTGATAATTATCACACCCAATTTAACTATAACGCTCTGATCATAGTCAGACCAACATTGCTACGACCCGTATTCGCACCGACAC	-4.883 ± 0.0066	-1.66 ± 0.086
ACATTTGTTGATACAACCATAAAATGATAATTACACCCATAAATTGATATTGCTCACAACCATAAAGTGATATTTACTCTGATCATAGTCAGACCAACATTGCTACGACCCGTATTCGCACCGACAC	-0.424 ± 0.093	0.269 ± 0.25
ACATTTGTTGATACAACCATAAAATCATCATTACCCCCATCAATTGATAATTATCACACCCAATTTAACTATAACGCTCTGATCATAGTCAGACCAACATTGCTACGACCCGTATTCGCACCGACAC	-5.41 ± 0.15	-1.24 ± 0.5
ACATTTGTTGATACAACCATAAAATGATAATTACACCCATAAATTGATAAGGATCACACCCATAAATTGATATTGCCTCTGATCATAGTCAGACCAACATTGCTACGACCCGTATTCGCACCGACAC	-0.665 ± 0.083	-0.0336 ± 0.22
ACATTTGTTGATACAACCATAAAATGATAATTACACAACGAAATTGATAATTATCACACCCATAAATTGATATTGCCTCTGATCATAGTCAGACCAACATTGCTACGACCCGTATTCGCACCGACAC	-3.5 ± 0.2	-3.53 ± 0.42
ACATTTGTTGATACAACCATAAAATGATACACCCATAAATTGATAATTATCACACCCATAAATTGATATTGCCTCTGATCATAGTCAGACCAACATTGCTACGACCCGTATTCGCACCGACACTGAC	-4.54 ± 0.12	-2.04 ± 0.42
ACATTTGTTGAATCAACCATAAAATGATAATTACACCCATAAATTGATAATTATCACACCCATAAATTGATATTGCCTCTGATCATAGTCAGACCAACATTGCTACGACCCGTATTCGCACCGACAC	0.38 ± 0.14	0.00973 ± 0.13
ACATTTGTTGATACAACCATAAAATGATAATTACACCCATAACGTGATAATTATCACACCCATAAATTGATATTGCCTCTGATCATAGTCAGACCAACATTGCTACGACCCGTATTCGCACCGACAC	0.496 ± 0.076	0.32 ± 0.18
ACATTTGTTGATACAACCATAAAATGATAATTACAACCATAAAGTGATATTTATCACACCCATAAATTGATAATTACTCTGATCATAGTCAGACCAACATTGCTACGACCCGTATTCGCACCGACAC	0.00575 ± 0.15	-0.0135 ± 0.3
ACATTTGTTGATACAACCAGCCCATGATAATTACACCCATAAATTGATAATTATCACACCCATAAATTGATATTGCCTCTGATCATAGTCAGACCAACATTGCTACGACCCGTATTCGCACCGACAC	-4.196 ± 0.023	-3.69 ± 0.75
ACATTTGTGGATACAACCATAAAACGATAATTACACCCATAAATTCATAATTATCACACCCAATTTAACTATAACGCTCTGATCATAGTCAGACCAACATTGCTACGACCCGTATTCGCACCGACAC	-2.15 ± 0.21	0.933 ± 0.13

Sequence	relative integration efficiency (log2) [1]	relative integration efficiency (log2) [2]
ACATTTGTTGATTGAACCATAAAATGATAATTACACCCATAAATTGATAATTATCACACCCATAAATTGATATTGCCTCTGATCATAGTCAGACCAACATTGCTACGACCCGTATTCGCACCGACAC	-0.172 ± 0.032	-1.4 ± 0.71
ACATTTGTTGATACAACCATAAAATCATAATTACCCCCATAAATTGATAATTATCCCACCCCATTTAACTATAACGCTCTGATCATAGTCAGACCAACATTGCTACGACCCGTATTCGCACCGACAC	-3.28 ± 0.32	0.676 ± 0.046
ACATTTGTTGATACAACCATAAAATGATAATTCAACCCATAAATTGATAATTATCACACCCATAAATTGATATTGCCTCTGATCATAGTCAGACCAACATTGCTACGACCCGTATTCGCACCGACAC	0.0959 ± 0.067	0.119 ± 0.3
ACATTTGTGGATACAACCATAAAATGATAATTACACCCATAAATTCATCATTATCACACCCAATTTAACTATAACGCTCTGATCATAGTCAGACCAACATTGCTACGACCCGTATTCGCACCGACAC	-2.03 ± 0.49	1.48 ± 0.12
ACATTTGTTGATACAACCAAAAAATGATAATTACACCCATAAATTGATAATGATGACACCGAATTTAACTATAACGCTCTGATCATAGTCAGACCAACATTGCTACGACCCGTATTCGCACCGACAC	-1.42 ± 0.27	2.11 ± 0.27
ACATTAGTTGATACAACCATAAAATGATAATTACACCCATAAATTGATCATTATCACACCCAATTTAACTATAACGCTCTGATCATAGTCAGACCAACATTGCTACGACCCGTATTCGCACCGACAC	-7.38 ± 0.13	-5.7 ± 0.14
ACATTTGTTGATACAACCATAAAATGATAATTACACCCATAAATTGATAATAATGACACCGAATTTAACTATAACGCTCTGATCATAGTCAGACCAACATTGCTACGACCCGTATTCGCACCGACAC	1.54 ± 0.64	5.35 ± 0.24
ACATTTCTCGATACAACCATAAAATGATAATTACACCCATAAATTGATCATTATCACACCCAATTTAACTATAACGCTCTGATCATAGTCAGACCAACATTGCTACGACCCGTATTCGCACCGACAC	-1.71 ± 0.54	1.36 ± 0.048
ACATTTGTTGATACAACCATAAAACGATAATTACACCCATAAATTCATCATTATCACACCCAATTTAACTATAACGCTCTGATCATAGTCAGACCAACATTGCTACGACCCGTATTCGCACCGACAC	-2.21 ± 0.32	1.29 ± 0.12
ACATTTGTTGATACAACCATAAAATGATAAATACACCCATAAATTGATAAATATCACACCCATAAATTGATATAGCCTCTGATCATAGTCAGACCAACATTGCTACGACCCGTATTCGCACCGACAC	-0.443 ± 0.15	0.037 ± 0.84
ACATTTGTTGATACAACCATAACCGTCGCCGGCACAAACGCCCGGTCGCCGGCGACACAAACGCCCGGTCGCGGTAAGAGGATCATAGTCAGACCAACATTGCTACGACCCGTATTCGCACCGACAC	-7.77 ± 0.98	-6.09 ± 0.56
ACATTTGTTGATACAACCATTAAATGGTAATTACACCCATAAATTGATAATTATCACACCCAATTTAACTATAACGCTCTGATCATAGTCAGACCAACATTGCTACGACCCGTATTCGCACCGACAC	-1.34 ± 0.19	1.674 ± 0.011
ACATTTGTTGATACAACCATATATTGATATCTCCAACCATATATTGATATCTCTCACAACCATAAAGTGATATTTACTCTGATCATAGTCAGACCAACATTGCTACGACCCGTATTCGCACCGACAC	-0.452 ± 0.1	0.0811 ± 0.2
ACATTTGTTGATACAACCATAAAATGATAATTACAACCATAAAATGATAATTATCACAACCATAAGTTGATATTTTCTCTGATCATAGTCAGACCAACATTGCTACGACCCGTATTCGCACCGACAC	-0.0104 ± 0.27	-0.17 ± 0.32
ACATTTGTTGATACAACCATAAAATCATCATTACACCCATCAATTGATAATTATCCCACCCAATTTAACTATAACGCTCTGATCATAGTCAGACCAACATTGCTACGACCCGTATTCGCACCGACAC	-4.67 ± 0.2	-1.17 ± 0.061
ACATTTGTTGATACAACCATAAAATGATAATTACACCCATCCCGTGATAATTATCACACCCATAAATTGATATTGCCTCTGATCATAGTCAGACCAACATTGCTACGACCCGTATTCGCACCGACAC	-1.77 ± 0.12	-1.98 ± 0.74
ACATTTGTTGATACAACCATAAAATGATAATTACAACCATATATTGATATCTCTCACAACCATAAAATGATAATTACTCTGATCATAGTCAGACCAACATTGCTACGACCCGTATTCGCACCGACAC	-0.257 ± 0.18	0.146 ± 0.15
